Assay results published in the domain aggregation screens of Martell et al. (2025).

Experiment: soluble fraction after stress (log2 fold change); higher = more stays soluble; pooled small domains, quantitative proteomics
Conditions: stress: pH 4
Outline: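 Aggregation propensity here comes from the fold change in the soluble amount of each small protein domain after acid stress, measured in pooled custom libraries by high-throughput quantitative proteomics. The acid stress was pH 4. On the log2 scale, higher values mean more of the domain stayed soluble.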

| Sequence | soluble fraction (log2) |
| --- | --- |
| HMKIQISGSQRIDENVVVKVAGLSFPQSLLSLEPGQIESKLMQELPVQEVSVQRRLLPPGLDIQLVE | -0.246 |
| HMSEQVQLQAQVEDDLIGKRLDQVVAQLFPDYSRSRLQGWIKDGSLTVDGESRRPRDKMMGGEVVRVEATL | -0.347 |
| HMPDLKIGKDHRLAEYIETKIAEDGYSPGAVLGEIKAKGLEFETEISKPTLYSYIDKGIFLTITNKELPV | 0.0942 |
| HMEPEYIGELEKRIKKLKTHTYSSIDRLMKSISKKYKITTQVLHDDFKNKHNEIPDEWVKQF | 0.22 |
| HMIGDNNELFQKAQLTPREKEVALLLLQGETNSDIAKILYVGLSTVKKHISSIFEKTKVKSRTEFISKVR | 0.0668 |
| HMGPELGENEKLIFDIIKKESKMELGILKAQVDLSNKKWDKALKGLATHGLTKVNKTDDGLFIELI | -0.942 |
| HMASDLPTVTIMGKTFYTYVAKKGESFFGIANRFGWDPELLVKTNRELETPLDKGALIYYPVPKKPK | -0.521 |
| HMDVNAQAGYDKLQSNQLDGARHDYEQALKTDPNNVDTLLALAAIAQRQGRSADADGYRQRAIDAD | -0.245 |
| HMSETEEWTVEGGQAGDRIDRHVAAMLGDDVSRSQVQQWIRAGRVTVNGRAVKPSDTVEEGDRVAVDLPEP | -0.397 |
| HMTAPELGIRQDGNTLVIFWPSSVTGYVLKSADAVDTPPASWTSVTHTTVGDEHRAEITPTGNSRFFRLV | -0.492 |
| HMKTTKESLLEYIQREVFTDSIHKEGLSTNEIADAFQIQRSNVSSLLNTLVKEGKLEKTTGRPVLYRIPEK | 0.0777 |
| HMASSRPLAEGDFVRLRAGGATGRIESIKGQKATVQMGGLKVHAPLRDLLPVAEPIKQVSTASNT | 0.203 |
| HMSDPHEELMSRIARDLSIPLTRVVAEMNTIISKEFGGHIRPEGAVVILAKRSGVEFSDLLPALRENILK | -0.852 |
| HMRKTLSQEAYEKIKQNLEDGVYQGYINGRQVARDLDIGFTPVREAFLQLQSEGLIRKEDNVGYFV | -0.183 |
| HMDERLLRLYERELQFLREGADEFAQAYPKVAGHLGLNSQSMGDPFIERLLEGLGFLTARIQLQLESEF | -0.823 |
| HMPGGLSAEDVEKMVEKVLTVNGDVVEEIRSGRDPKGKKIKFLAGLVMRDARGQADAAAVSGILERRLKEG | 0.371 |
| HMEPKQIEVPNLVGISSAAARQTLSALGLHAVVKDSIWSETERIDTVLEQNPAGGALIKPEGTVYLRVSR | 0.0547 |
| HMDDVYMVPVKDIAINDLKQEFEKLGIPNIQNTIPDKDLNFFIVRKDDLALVNYAIEKTMER | -0.523 |
| HMQLDLNENEKIIFEILQNNKTMQLSNLKTQTELSNKGWDKAIKSLTKQGLAKVSKIDNELIVEFL | -0.723 |
| HMRDPVDKDNYLGDWDKNKTYPAGYVMTFGDKNYLALQEVPAGTKPGATDPDPFWVLDTGKTLKD | 0.163 |
| HMEGPALKVWKARYLRAAILEQLLSDRWDDRGGQPIRVVVNEPTNSLLIRIPRHLWPEAEKLLQELDQR | -0.312 |
| HMSTSEQVYTTDKVNVRREADTSSEKLGSLEKGTAISRTGTEGEWSVVNYGGVTGYIKTEFLTTEQPQ | 0.224 |
| HMPSSAYGPYKNVFLSNSELTKLKNELPTSWEHYINRLSEYMRSTGRQYQSHAATILRWAATDRNS | 0.0263 |
| HMSGSFDVTLDYLNSLRNLYPAIDVEQEFRKMYAWLDSNPKNRKTERGIKRFITGWLGRAQDKAP | -0.9 |
| HMDTSAHEVLSAIRSIIEDEDKRHPLSDEAITSRLSQQGYDIARRTVAKYRERLGLPVARLRRE | 0.376 |

| Sequence | soluble fraction (log2) |
| --- | --- |
| HMGPRPLPAEFTHPSLRALLALGTTRGGVTSADVKTALEAASVPAGRRAAVLRALDDNGIEVHTEP | 0.107 |
| HMNLTLMDALKAAGLPVDGINLSMVNKMMEEQMPIDKTSLNQMYQLVQDNKDINVTTLVELKRLG | -0.393 |
| HMRSQLALVVRTGESQRLDNFLVNNLAWKSRNRLQGLIREGLVTVNGEKTKASRRVHLDDLVEIHL | -0.0501 |
| HMSLSNMIGKNIQWTHVTKTKDAEGNPKTNSETFAGNVRGVKVLNGKPMVVAQDAKGKLHEVEVSEIEAIA | 0.22 |
| HMRDQARQFFIDTWAKFQRHDALTPLEEKTAAIIALHPEYHRVLQNPESFITTDWRPESGDINPFMHL | -0.803 |
| HMTMIIQLDKNITQEQRQFLVEELNRLSISPNFVSTQFTNYIVGIPKKEFDIRLIGNLPGIADIHFV | -0.269 |
| HMTHEAEDLNALRMMVRDPIFSSDEPDLQQLRGAVAHAPQFVDRFKELYNDYQRLAEFVQNSL | -1 |
| HMSDHYEVLGVDRNATDDQIKKAYRRLARELHPDVNDAPESQEKFKLVTHAYEVLSDPDERRKYDMG | 0.056 |
| HMDDVVVLPFTAEFARMSSDDFVREILVGKIGMKRFVVGYNHRFGSGQQGDFASLQRMQGELGFVAVRVG | -0.479 |
| HMGDFLLQVDFPPALLEMLPEGKRQAAIGVLSHDPRPAYQRTPGRVYGLNFAGHNIRFAVSENLLTVLEV | -0.302 |
| HMSDQIQQIAERIAGLRDIAGYSVEELARELGISAEEYKRYESGEVDIPIGFLYKLANKYNVELTAILT | -1.02 |
| HMNVDSLIGQTARVIVDINNNDSIGYALVGGQEWTARAENDNDIIPKDTLVEIVGVSGVKLIVRRKE | -0.0794 |
| HMKIETVENPLLERTEISALFDSKSGSLTRKEAIDLISKKARIDSSTVYAIKLSNSSGSTRIIGLFY | 0.00271 |
| HMSKETTYEVLSLKGDEWQTDTIYSDRDEAIEAARNLHGDPHIDGAKVISEVYDDKTGGSKETTIFNT | -0.21 |
| HMGGPAGPDFTYTGDDLTRIDYDDGSYKVFTYDAGKLSQIDFTSGGTTTRKTFVYSGDTLIRVDQTI | -1.43 |
| HMVPFISVTPTSLSFAKGGESKTVDIEASGAFSVGKVPTGFNLEVVNGRITITADANTGAARNGSVEFILA | 0.00872 |
| HMGLQRLTVSPEDAGVRIDKYLAEQLPDITRSYLQKLLKDGSVQMNGKPVKASTKTAVGAVIALTIPEP | -0.157 |
| HMSDYKSYLQELVQTDKKSLSYNVVKETGPAHDKTFEVEVEVDGIIYAHGVGKSKKEAEQNAAKNAIMISA | -0.24 |
| HMPYIVNHIHLKSEDPKITADWFVKAFNFEIVSDVVRHFGDRFIVTKAEGGMTINISGVRDGEEL | 0.262 |
| HMDHFLRRFQVEGLNLEKLLRLAAEREMDLLQVRRSGRRMTGLVAEKRLPELEELAAQGGWALRLGEY | ≥ 0.43 |
| HMKTPRKVFTVLIRNTEYDVYDIDGKEHQGYNDTPKTWWLYHSERLPEGMIPPIDSDSWKPYSVGT | -2.19 |
| HMNLDELGNRIREQRIKQRLKQQDIANALMLSAQAVSKWERGENAPDISVLPDLVKILGVSVDWLLTGP | -1.15 |
| HMHMSLTEKYKELTDLAVSAGVQNLNVREQDGVLYVDGDASGAVKQQLWDTYGKLDPDYTSGDLVLNI | -0.696 |
| HMIVAHEINRHLGESDQPVEIPDNRREGAVAELLKTFNNDDAFREMDDGKYEVALDGEKVREAARSLLA | -0.0196 |
| HMTTLDTVARQLRDRIREQLDPTGEMSDESLLRTIEEAVYRYSSSGHVLTANEKETVIRRIFHSFR | -0.201 |

| Sequence | soluble fraction (log2) |
| --- | --- |
| HMIPPGTITIEGAITKVPVFLDGKQIGTVPLTKEDVEPGKYRIRVLGVGRVITIDPGEKENVLFSGEDLGL | -0.401 |
| HMNLTSNDAYSRILNAIITSELRPGDTVTEIQLAQKFGFGRTPVREAIMRLENEGFIVSAERKKRVYIL | -0.815 |
| HMLPLLAFDEKLNRLGYGGGFYDRTLASLAHKGNTITAIGIAYESQKMDKVPTGYFDRPLDGVLTPSGLIM | -0.0764 |
| HMGQISDESVLKEMVVQLIADNPKEVASYLGGKETLLQWFMGQVARATKGKADPQAVKQLLLDEFEKLK | -0.504 |
| HMGISNEETFLLEKMSSGRRYSRKELDNLMGFEKTKTIRLLGSLINKGLVVAEGVNRARRYIR | -0.00925 |
| HMHSVIALTIPADYAGLRLDQALAKLLPNWSRSRLQTWIAENRVILDGQITTIKQKVWGNELIQISPQD | -0.252 |
| HMVPPELEFLQSLMKIEDISELTAAIENNRDAVTDDFKEMLETVIENISGAPDTDPKLLERLKTIRTVLA | -0.631 |
| HMTLPGQDFIRASQLKELIAKYDKQYYEEGVSDISDAEYDRLYEEYLEFENKYPELKDMADAPTKRV | -0.661 |
| HMQQFGANVRLIRKARQMSIKQLSELSGVSQTMISEVERGLKIPTIDVAGKIAAALGIDLTNLMG | 0.0733 |
| HMRMTTEQLMSFLKQHFPQVADNFTVRISDEGRLSVEMPVNDKHLRPGGTVSGPSMFALADVAFYLAILQ | -0.349 |
| HMRTNVDISPKILEWVLSQVRNRTTNDVIETIQIWIKGEKPPTFNQVEKISKATGVPLGYFFLKTPPVED | -0.684 |
| HMEPELSVDMKPLDGLLLAIKKELQAAQMYTRLARASADAEQKMVFEQLANMEKGHKARLEDIYT | -0.348 |
| HMNADRIVGQTAKVIHPITPDEKGRVMVDNLDWAAAAQNRGESFEVGEEVSIVRIEGVTVYVQK | -0.57 |
| HMKYNYEAQQSDELSLVKGSRIHVLEKSSDGWWKGEIDNVVGWFPS | -0.102 |
| HMESYTEEMLEKMSVSKLRTIARELQVDNMTREQIRFGKKTELIQNILEFTGREIENMQLYDK | -0.357 |
| HMDNEIIEEEKITTLMITHNMRDAIKYGNRLIMLNEGRVIFDISGEEKKNLTVQELLEKFEK | 0.22 |
| HMSNEEEIEGLVSKVLDNNPEIVERIRSGEDKLISYLVGEVMKQSSSSLNPGIVKEIIVNKTI | -0.154 |
| HMNHHEIIMKNIDTLLKEKNISISKLEKSLGISNGYISRLRNGKYNFSLDLLLKLAKKFKISIDYLLTDFD | -0.119 |
| HMSFVDFYGLFTTELQRLAELPVTADELIKNTGLHKSQLTDWLKRAEEDGVVKKLNRPVRYQVEKK | -0.989 |
| HMEFSYMDQGLERYRAFLETHGHGNVPESYHELKLVNFVAHIRKLYRMNLLSEERRRALDEAGFVF | -1.24 |
| HMGVTDLFAVLGFPRSPWLDAEELKQRHHALMADEASANSSPTILNEARRTLQNPALRIRHFLALEFPDH | -0.82 |
| HMEKLSMLKIKELFRLAIEMNLSHRQIAQSLNVSHTVVNRYLKRFKKSNLSYETLLKLGDKEIISALYEH | -0.0551 |
| HMGRLPMNIVRAIVEHLDRHASYSEINRATGASKGFISKVAAAVEAASLTPEKFLLLNDEDIQNRITPGR | -0.133 |
| HMRYLMPDLVNRRYEPVRSLLEARGIRFGNVIFEPYEGLPPGIVLRQDPPAGHPLPRRRTVSLVVSGPGGR | 0.109 |
| HMSMSLQFLSRRIRLQREKRGLKQHDIAHALQISPQAVSKWERGENAPDIALLRPLAGLLGVSIDWLMGGD | -1.7 |
